Experiments:
Nc1nc(=O)[nH]cc1F = experiment: purified protein; type: biochemical, Saccharomyces cerevisiae; settings: PBS, 37 °C, one experiment
LinkCD = experiment: UV absorbance at […] nm of quenched aliquots, double-reciprocal plot; type: biochemical, Homo sapiens; Saccharomyces cerevisiae; settings: read-out: Enzyme kinetics (5-FC) / Km; PBS, 37 °C; CD active site

Compound	Vmax (Nc1nc(=O)[nH]cc1F)	Km (LinkCD)
CD (yeast cytosine deaminase) (Saccharomyces cerevisiae S288C)	120000 µM/min/mg	
Nc1nc(=O)[nH]cc1F [5-FC, 5-fluorocytosine]		330 ± 40 µM
